Reference: patent publication US20210246166A1 (Bayer, published 2021)
Bridge positions count the residues as written; N and C are the ends. Square brackets hold non-standard residues; d marks the D form. Ends that are not written are not given here. Pro(cis-4-CF3) = O=C(O)[C@@H]1C[C@H](C(F)(F)F)CN1; Oic = O=C(O)[C@@H]1C[C@@H]2CCCC[C@@H]2N1; PEG8 = NCCOCCOCCOCCOCCOCCOCCOCCOCCC(=O)O; tBuAla = CC(C)(C)C[C@H](N)C(=O)O; PEG4 = NCCOCCOCCOCCOCCC(=O)O; Pen = CC(C)(S)[C@H](N)C(=O)O; Tranexamic = tranexamic acid; Sar = CNCC(=O)O

How the values were obtained:
[1] = target: T1, recombinant rat MASP1 active protease (amino acids 302-704, C-terminal His Tag) (rat, UniProt Q8CHN8 302-704); experiment: cell-based or functional assay
T1 sequence: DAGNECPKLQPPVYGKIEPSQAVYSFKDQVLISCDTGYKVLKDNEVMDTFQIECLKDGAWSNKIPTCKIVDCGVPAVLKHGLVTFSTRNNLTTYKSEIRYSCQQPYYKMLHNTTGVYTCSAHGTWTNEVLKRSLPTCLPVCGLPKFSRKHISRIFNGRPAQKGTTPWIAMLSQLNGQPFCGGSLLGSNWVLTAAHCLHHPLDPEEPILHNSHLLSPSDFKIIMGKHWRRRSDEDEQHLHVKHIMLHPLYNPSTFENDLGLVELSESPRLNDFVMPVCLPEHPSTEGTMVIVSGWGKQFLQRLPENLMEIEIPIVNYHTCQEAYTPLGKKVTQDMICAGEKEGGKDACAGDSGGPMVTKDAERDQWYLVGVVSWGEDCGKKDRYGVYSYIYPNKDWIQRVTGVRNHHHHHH

[2] = target: recombinant rat MASP2 active protease (amino acids 296-685, C-terminal His Tag) (rat, UniProt Q9JJS8 296-685); experiment: cell-based or functional assay
Sequence of recombinant rat MASP2 active protease (amino acids 296-685, C-terminal His Tag) (Q9JJS8 other isoform, or with tags, fused parts or gaps limits assumed): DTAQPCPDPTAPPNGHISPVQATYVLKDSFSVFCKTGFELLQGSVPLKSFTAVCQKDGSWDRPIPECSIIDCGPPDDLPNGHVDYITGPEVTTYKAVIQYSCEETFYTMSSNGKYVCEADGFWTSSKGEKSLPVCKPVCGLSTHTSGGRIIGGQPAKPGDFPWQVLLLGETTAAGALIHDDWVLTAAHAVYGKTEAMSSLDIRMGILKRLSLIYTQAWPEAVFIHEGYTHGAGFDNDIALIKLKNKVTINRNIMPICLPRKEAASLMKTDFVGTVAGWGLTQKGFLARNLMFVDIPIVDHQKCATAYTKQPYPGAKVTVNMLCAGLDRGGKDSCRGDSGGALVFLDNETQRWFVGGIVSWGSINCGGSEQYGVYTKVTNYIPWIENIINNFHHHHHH

Binder | rat MASP1 IC50 [1] [nM] | rat MASP2 IC50 [2] [nM]
AICSRS[tBuAla]P[Pro(cis-4-CF3)]ICIPD-NH2 (disulfide 3-11; N-terminus assumed; SMILES CC[C@H](C)[C@H](NC(=O)[C@H](C)N)C(=O)N[C@H]1CSSC[C@@H](C(=O)N[C@H](C(=O)N2CCC[C@H]2C(=O)N[C@@H](CC(=O)O)C(N)=O)[C@@H](C)CC)NC(=O)[C@H]([C@@H](C)CC)NC(=O)[C@@H]2C[C@H](C(F)(F)F)CN2C(=O)[C@@H]2CCCN2C(=O)[C@H](CC(C)(C)C)NC(=O)[C@H](CO)NC(=O)[C@H](CCCNC(=N)N)NC(=O)[C@H](CO)NC1=O) [Example 158: AIC+SRS-((tBu)A)-P-((4-CF3)P)-IC+IPD-NH2] | 247 | 420
[Sar]ICSRS[tBuAla]PPI[Pen]IP-NH2 (disulfide 3-11; N-terminus assumed; SMILES CC[C@H](C)[C@H](NC(=O)CNC)C(=O)N[C@H]1CSSC(C)(C)[C@@H](C(=O)N[C@H](C(=O)N2CCC[C@H]2C(N)=O)[C@@H](C)CC)NC(=O)[C@H]([C@@H](C)CC)NC(=O)[C@@H]2CCCN2C(=O)[C@@H]2CCCN2C(=O)[C@H](CC(C)(C)C)NC(=O)[C@H](CO)NC(=O)[C@H](CCCNC(=N)N)NC(=O)[C@H](CO)NC1=O) [Example 156: ((N-Me)G)-IC+SRS-((tBu)A)-PPI-(Pen)+IP-NH2] | 21 | 16
[Sar]ICSRSLP[Oic]I[Pen]IP[PEG8]-NH2 (disulfide 3-11; N-terminus assumed; SMILES CC[C@H](C)[C@H](NC(=O)CNC)C(=O)N[C@H]1CSSC(C)(C)[C@@H](C(=O)N[C@H](C(=O)N2CCC[C@H]2C(=O)NCCOCCOCCOCCOCCOCCOCCOCCOCCC(N)=O)[C@@H](C)CC)NC(=O)[C@H]([C@@H](C)CC)NC(=O)[C@@H]2C[C@@H]3CCCC[C@@H]3N2C(=O)[C@@H]2CCCN2C(=O)[C@H](CC(C)C)NC(=O)[C@H](CO)NC(=O)[C@H](CCCNC(=N)N)NC(=O)[C@H](CO)NC1=O) [Example 168: ((N-Me)G)-IC+SRSLP-(Oic)-I-(Pen)+IP-(PEG8(28 atoms))-NH2] | 140 | 53
AICSRSLPPI[Pen]IPD-NH2 (disulfide 3-11; N-terminus assumed; SMILES CC[C@H](C)[C@H](NC(=O)[C@H](C)N)C(=O)N[C@H]1CSSC(C)(C)[C@@H](C(=O)N[C@H](C(=O)N2CCC[C@H]2C(=O)N[C@@H](CC(=O)O)C(N)=O)[C@@H](C)CC)NC(=O)[C@H]([C@@H](C)CC)NC(=O)[C@@H]2CCCN2C(=O)[C@@H]2CCCN2C(=O)[C@H](CC(C)C)NC(=O)[C@H](CO)NC(=O)[C@H](CCCNC(=N)N)NC(=O)[C@H](CO)NC1=O) [Example 170: AIC+SRSLPPI-(Pen)+IPD-NH2] | 54 | 9.82
AICSRS[tBuAla]PPI[Pen]IP[Tranexamic]-NH2 (disulfide 3-11) [Example 171: AIC+SRS-((tBu)A)-PPI-(Pen)+IP-(Tranexamic)-NH2] | 42 | 21
[Sar]ICSRS[tBuAla]PPI[Pen]IP[PEG4]-NH2 (disulfide 3-11; N-terminus assumed; SMILES CC[C@H](C)[C@H](NC(=O)CNC)C(=O)N[C@H]1CSSC(C)(C)[C@@H](C(=O)N[C@H](C(=O)N2CCC[C@H]2C(=O)NCCOCCOCCOCCOCCC(N)=O)[C@@H](C)CC)NC(=O)[C@H]([C@@H](C)CC)NC(=O)[C@@H]2CCCN2C(=O)[C@@H]2CCCN2C(=O)[C@H](CC(C)(C)C)NC(=O)[C@H](CO)NC(=O)[C@H](CCCNC(=N)N)NC(=O)[C@H](CO)NC1=O) [Example 174: ((N-Me)G)-IC+SRS-((tBu)A)-PPI-(Pen)+IP-(PEG3(16atoms))-NH2] | 65.6 | 35.1
